Experimental data reported in the Immune Epitope Database (IEDB).

Assays:
Assay in all cases: IEDB peptide-MHC binding, purified MHC/competitive/radioactivity; filed as Kd, often an IC50 or EC50 that approximates it; ≥ and ≤ were set here for values at or beyond the usual limits of such assays
HLA-A*03:01 = target: HLA-A*03:01
HLA-A*11:01 = target: HLA-A*11:01
HLA-A*31:01 = target: HLA-A*31:01
HLA-A*33:01 = target: HLA-A*33:01
HLA-A*68:01 = target: HLA-A*68:01
[1] = source organism: Vaccinia virus WR
[2] = source organism: Mammarenavirus machupoense
[3] = source organism: SARS coronavirus Tor2
[4] = source organism: Dengue virus 3 Martinique/1243/1999
[5] = source organism: Mammarenavirus juninense
[6] = source organism: Dengue virus 2 Jamaica/1409/1983
[7] = source organism: Dengue virus 1 Brazil/97-11/1997
[8] = source organism: Lassa virus Josiah
[9] = source organism: Vaccinia virus Copenhagen

Sequence | Kd (HLA-A*03:01; [1]) | Kd (HLA-A*11:01; [1]) | Kd (HLA-A*31:01; [1]) | Kd (HLA-A*33:01; [1]) | Kd (HLA-A*68:01; [1]) | also measured
LILSNKLLY | 13.7 nM | 192 nM | 5630 nM | 13200 nM | 5470 nM | 
SSFDYCGVNH |  |  |  |  |  | Kd (HLA-A*03:01; [2]): 8190 nM; Kd (HLA-A*11:01; [2]): 4840 nM; Kd (HLA-A*31:01; [2]): 1970 nM; Kd (HLA-A*33:01; [2]): 6430 nM; Kd (HLA-A*68:01; [2]): 492 nM
TQNVLYENQK |  |  |  |  |  | Kd (HLA-A*03:01; [3]): ≥ 29200 nM; Kd (HLA-A*11:01; [3]): 523 nM; Kd (HLA-A*31:01; [3]): 13300 nM; Kd (HLA-A*33:01; [3]): ≥ 70000 nM; Kd (HLA-A*68:01; [3]): 3090 nM
NVYADSFVVK |  |  |  |  |  | Kd (HLA-A*03:01; [3]): 76.5 nM; Kd (HLA-A*11:01; [3]): 101 nM; Kd (HLA-A*31:01; [3]): 386 nM; Kd (HLA-A*33:01; [3]): 972 nM; Kd (HLA-A*68:01; [3]): 29.3 nM
TMHANYIFWR |  |  |  |  |  | Kd (HLA-A*03:01; [3]): 1260 nM; Kd (HLA-A*11:01; [3]): 125 nM; Kd (HLA-A*31:01; [3]): 11.3 nM; Kd (HLA-A*33:01; [3]): 121 nM; Kd (HLA-A*68:01; [3]): 35.5 nM
RLTDTEYRAR | 667 nM | 794 nM | 1.33 nM | 469 nM | 822 nM | 
AGLAFSIMK |  |  |  |  |  | Kd (HLA-A*11:01; [4]): 13.8 nM
TSASEIKDR | ≥ 78000 nM | 1680 nM | 18900 nM | 1340 nM | 9.93 nM | 
LMSGRGIGK |  |  |  |  |  | Kd (HLA-A*03:01; source organism: Dengue virus 2 Peru/IQT2913/1996): 48 nM
MVEPWLSSK |  |  |  |  |  | Kd (HLA-A*11:01; source organism: Dengue virus 4 Philippines/H241/1956): 648 nM
KAIKILIGFR |  |  |  |  |  | Kd (HLA-A*31:01; source organism: Dengue virus 4 Dominica/814669/1981): 8.62 nM
SWPVQCPLDH |  |  |  |  |  | Kd (HLA-A*03:01; [5]): ≥ 70000 nM; Kd (HLA-A*11:01; [5]): ≥ 69700 nM; Kd (HLA-A*31:01; [5]): 9.74 nM; Kd (HLA-A*33:01; [5]): 19400 nM; Kd (HLA-A*68:01; [5]): ≥ 70100 nM
PLLCNLNKSH |  |  |  |  |  | Kd (HLA-A*03:01; [5]): ≥ 70000 nM; Kd (HLA-A*11:01; [5]): ≥ 69700 nM; Kd (HLA-A*31:01; [5]): ≥ 70000 nM; Kd (HLA-A*33:01; [5]): ≥ 70000 nM; Kd (HLA-A*68:01; [5]): ≥ 45800 nM
MSSSVDVDIY | ≥ 25900 nM | 12500 nM | ≥ 70000 nM | ≥ 29700 nM | 250 nM | 
YVGIKLGDK | 987 nM | 650 nM | ≥ 24900 nM | ≥ 50600 nM | 2090 nM | 
KSEFQIYKK |  |  |  |  |  | Kd (HLA-A*11:01; [6]): 244 nM
IVFVCVEYY |  |  |  |  |  | Kd (HLA-A*03:01; [3]): 49.7 nM; Kd (HLA-A*11:01; [3]): 41 nM; Kd (HLA-A*31:01; [3]): 112 nM; Kd (HLA-A*33:01; [3]): 844 nM; Kd (HLA-A*68:01; [3]): 23 nM
RILQRGLLGR |  |  |  |  |  | Kd (HLA-A*03:01; [7]): 16.4 nM; Kd (HLA-A*31:01; [7]): ≥ 70000 nM
SARNKLFKR | ≥ 58700 nM | 5710 nM | 1.25 nM | 69.6 nM | 441 nM | 
KFQADSPKR |  |  |  |  |  | Kd (HLA-A*31:01; [7]): 39.9 nM
GVEDTESIER | ≥ 70100 nM | 948 nM | 1930 nM | 673 nM | 1840 nM | 

Sequence | Kd (HLA-A*03:01; [1]) | Kd (HLA-A*11:01; [1]) | Kd (HLA-A*31:01; [1]) | Kd (HLA-A*33:01; [1]) | Kd (HLA-A*68:01; [1]) | also measured
RIGTAATKRY | 1250 nM | ≥ 69800 nM | ≥ 70000 nM | ≥ 70000 nM | ≥ 59600 nM | 
SAAIDGEYR |  |  |  |  |  | Kd (HLA-A*68:01; [7]): 41.6 nM
TFVNFNSVK | 784 nM | 21.4 nM | 103 nM | 197 nM | 12.5 nM | 
ISLNSMYTR | 6100 nM | 37.4 nM | 4.62 nM | 85.6 nM | 13.3 nM | 
KVKYLYFIK |  |  |  |  |  | Kd (HLA-A*03:01; [3]): 113 nM; Kd (HLA-A*11:01; [3]): 49.1 nM; Kd (HLA-A*31:01; [3]): 0.138 nM; Kd (HLA-A*33:01; [3]): 9300 nM; Kd (HLA-A*68:01; [3]): 968 nM
ALAYYNNSK |  |  |  |  |  | Kd (HLA-A*03:01; [3]): 44.5 nM; Kd (HLA-A*11:01; [3]): 29 nM; Kd (HLA-A*31:01; [3]): 7570 nM; Kd (HLA-A*33:01; [3]): ≥ 45900 nM; Kd (HLA-A*68:01; [3]): 832 nM
TCQGSDDIR |  |  |  |  |  | Kd (HLA-A*03:01; [8]): ≥ 78000 nM; Kd (HLA-A*11:01; [8]): ≥ 77900 nM; Kd (HLA-A*31:01; [8]): ≥ 22300 nM; Kd (HLA-A*33:01; [8]): 12100 nM; Kd (HLA-A*68:01; [8]): 14500 nM
QIDRLEDLSK | 1450 nM | 255 nM | 6790 nM | 14700 nM | 2310 nM | 
YSFKLILAEY | 8180 nM | 7290 nM | 658 nM | 7960 nM | 3670 nM | 
WIMLLQFAY |  |  |  |  |  | Kd (HLA-A*03:01; [3]): 4090 nM; Kd (HLA-A*11:01; [3]): 14100 nM; Kd (HLA-A*31:01; [3]): 5330 nM; Kd (HLA-A*33:01; [3]): ≥ 77700 nM; Kd (HLA-A*68:01; [3]): ≥ 23000 nM
FISDNKKEYK | 1880 nM | 47.5 nM | 118 nM | 1050 nM | 11.3 nM | 
AVQTKPGLFK |  |  |  |  |  | Kd (HLA-A*03:01; [6]): 16.6 nM; Kd (HLA-A*11:01; [6]): 37.9 nM
VLAYMLFTK |  |  |  |  |  | Kd (HLA-A*03:01; [3]): 0.179 nM; Kd (HLA-A*11:01; [3]): 0.894 nM; Kd (HLA-A*31:01; [3]): 223 nM; Kd (HLA-A*33:01; [3]): 1890 nM; Kd (HLA-A*68:01; [3]): 7.96 nM
FMTLVPVLEK | 82.6 nM | 3.96 nM | 73.3 nM | 20 nM | 2 nM | 
SLAIKNYYRK |  |  |  |  |  | Kd (HLA-A*03:01; [9]): 35.3 nM; Kd (HLA-A*11:01; [9]): 10.6 nM; Kd (HLA-A*31:01; [9]): 297 nM; Kd (HLA-A*33:01; [9]): 1180 nM; Kd (HLA-A*68:01; [9]): 1770 nM
FSPENKAFK | 6250 nM | 5020 nM | 6710 nM | 3920 nM | 133 nM | 
AAGIIILMEY | 6280 nM | 1340 nM | 1030 nM | 7170 nM | 1200 nM | 
KEFKDFAAGR |  |  |  |  |  | Kd (HLA-A*31:01; [4]): 405 nM
FLSGKGLGK |  |  |  |  |  | Kd (HLA-A*03:01; [7]): 6.26 nM
GTIAGGVCY | 4070 nM | 69.7 nM | ≥ 62600 nM | ≥ 77700 nM | 7900 nM | 
